The values that follow come from patent US20240369485A1, “FLUORESCENT SENSOR FOR MONITORING CALCIUM DYNAMICS” (priority 2021, published 2024).

One data set has as its target T1, CaSR E297K (Homo sapiens, UniProt P41180, E297K).
T1 construct: expressed in transfected cells; host or cells: HEK293
T1 sequence (P41180 20-1078 E297K): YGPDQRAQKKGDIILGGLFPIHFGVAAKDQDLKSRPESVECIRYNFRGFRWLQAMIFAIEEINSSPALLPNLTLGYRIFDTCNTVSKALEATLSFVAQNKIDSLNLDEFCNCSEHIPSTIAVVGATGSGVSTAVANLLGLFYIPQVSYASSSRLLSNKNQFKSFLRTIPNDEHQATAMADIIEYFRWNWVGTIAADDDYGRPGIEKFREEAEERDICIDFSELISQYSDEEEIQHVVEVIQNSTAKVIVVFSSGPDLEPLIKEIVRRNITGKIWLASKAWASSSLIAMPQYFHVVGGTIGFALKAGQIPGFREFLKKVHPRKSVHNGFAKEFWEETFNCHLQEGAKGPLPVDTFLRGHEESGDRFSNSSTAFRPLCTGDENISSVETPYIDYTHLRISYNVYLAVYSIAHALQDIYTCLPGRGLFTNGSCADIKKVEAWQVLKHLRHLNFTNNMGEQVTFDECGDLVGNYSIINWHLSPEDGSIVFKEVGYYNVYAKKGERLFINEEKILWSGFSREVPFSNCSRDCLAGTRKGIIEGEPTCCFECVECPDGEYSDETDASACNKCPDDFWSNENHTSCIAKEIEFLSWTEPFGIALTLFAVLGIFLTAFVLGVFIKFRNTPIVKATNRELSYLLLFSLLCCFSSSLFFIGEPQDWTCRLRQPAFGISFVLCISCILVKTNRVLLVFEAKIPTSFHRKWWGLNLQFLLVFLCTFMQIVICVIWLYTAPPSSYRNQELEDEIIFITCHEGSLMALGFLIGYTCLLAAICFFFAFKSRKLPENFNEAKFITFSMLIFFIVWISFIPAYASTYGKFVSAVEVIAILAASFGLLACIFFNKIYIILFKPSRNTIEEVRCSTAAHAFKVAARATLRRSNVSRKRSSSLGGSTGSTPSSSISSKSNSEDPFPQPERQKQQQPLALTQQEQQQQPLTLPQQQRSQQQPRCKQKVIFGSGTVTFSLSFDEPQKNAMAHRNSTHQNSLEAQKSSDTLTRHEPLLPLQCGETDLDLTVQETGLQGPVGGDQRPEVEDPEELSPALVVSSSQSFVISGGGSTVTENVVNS
Briefly: Epifluorescence imaging of CaSR mediated ER Ca^2+ dynamics using R-CatchER, E297K mutant. The data set is classed as cell-based. The note with it: E297K mutant with TNCA (500 μM). The protocol:
(§1) Cell culture and transfection. C2C12, HEK293 and HeLa cells were cultured and maintained in Dulbecco's modified Eagle's medium (DMEM) supplemented with 10% fetal bovine serum (FBS) and high glucose (4.5 g/L) at 37° C. R-CatchER, G-CatchER2, G-CEPIA1er, R-CEPIA1er or R-CatchER with GFP-CaSR (wt and mutations) were transfected into cells using Lipofectamine 3000 (Life Technologies), following the manufacturer's instructions. Seed cells onto sterilized 22 mm×40 mm glass microscope slides in 6 cm dishes until about 70% confluency, the day of transfection. The next day, 2 μg of plasmid were mixed with transfection reagent in the reduced serum media Opti-MEM for 4-6 h at 37° C. The media was then replaced with 3 mL of fresh DMEM and incubated at 37° C. for 48 h.
Epifluorescence imaging of class C GPCR mediated ER Ca^2+ dynamics using R-CatchER and Fura-2. HEK293 Cells transfected with R-CatchER and GFP-CaSR (wt and mutations) were incubated with Fura-2 for 30 mins at 37° C. then washed with 2 mL of physiological Ringer buffer (10 mM HEPES, 140 mM NaCl, 5 mM KCl, 1.2 mM MgCl2, 1.8 mM CaCl2) at pH 7.4). The coverslips were mounted on a bath chamber and placed on the stage of a Leica DM6100B inverted microscope with a Hamamatsu cooled EM-CCD camera and illuminated with a Till Polychrome V Xenon lamp. […]

Another data set addresses T2, CaSR (wildtype) (Homo sapiens, UniProt P41180).
T2 construct: expressed in transfected cells; host or cells: HEK293
T2 sequence (P41180 20-1078): T1 sequence (P41180 20-1078 E297K) with K278E
The data set can be described thus: Epifluorescence imaging of CaSR mediated ER Ca^2+ dynamics using R-CatchER and Fura-2 in HEK293 cells. The data set is classed as cell-based. The note with it: for effect on cytosolic and ER Ca^2+ oscillations: Tg 3 μM, 2-APB 100 μM, ionomycin 20 μM with 10 mM Ca^2+. The protocol: as §1
Epifluorescence imaging of class C GPCR mediated ER Ca^2+ dynamics using R-CatchER and Fura-2. HEK293 Cells transfected with R-CatchER and GFP-CaSR (wt and mutations) were incubated with Fura-2 for 30 mins at 37° C. then washed with 2 mL of physiological Ringer buffer (10 mM HEPES, 140 mM NaCl, 5 mM KCl, 1.2 mM MgCl2, 1.8 mM CaCl2) at pH 7.4). The coverslips were mounted on a bath chamber and placed on the stage of a Leica DM6100B inverted microscope with a Hamamatsu cooled EM-CCD camera and illuminated with a Till Polychrome V Xenon lamp. Cells were illuminated at 340 nm, 380 nm and 569 nm, in real-time, as cells were exposed to different concentrations of Ca^2+, cinacalcet, Phe, TNCA, or NPS2143.

Data set [1] can be described thus: Calcium (Ca^2+) binding assay: fluorescence/absorbance titration of purified protein. How it is done:
Calcium (Ca^2+) binding assay. 10 μM protein samples of mApple, EGFP, and mCherry variants were titrated with different concentrations of Ca^2+. Data were fitted with a 1:1 binding equation. Fluorescence intensities were collected using a Spectrofluorimeter (Photon Technology International, Inc.) and the absorbance values of Ca^2+-free and Ca^2+-loaded forms were determined using a Shimadzu UV-1601 spectrophotome.
Ca^2+ binding assay. Fluorescence measurements of mApple variants with increasing Ca^2+ concentrations were done in order to obtain the affinity of the sensor for Ca^2+ in vitro. Samples of 10 μM mApple variants with 5 μM EGTA were prepared in triplicate in 1 mL volumes in 10 mM Tris, pH 7.4. The samples were placed in quartz fluorescence cuvettes, and metal ion was titrated into each sample, in a stepwise manner, using 0.1 M and 1 M metal stock solutions. The fluorescence response of the indicator to increasing Ca^2+ concentrations was monitored using a fluorescence spectrophotometer (Photon Technology International, Canada) with the Felix32 fluorescence analysis software. The absorbance spectra before and after titration were obtained using a Shimadzu UV-1601 spectrophotometer.

Data set [2] is described as follows: pKa determination of the chromophore. The data set is classed as physicochemical. The protocol:
pKa determination. To measure the chromophore pKa of mApple, EGFP, and mCherry variants, the proteins were prepared in buffers (sodium acetate buffer for pH 3-5, MES buffer for pH 5-6, HEPES buffer for pH 6.5-8, TRIS buffer for pH 8.5-9) covering a pH range from 3 to 10. All samples were Incubated at 4° C. overnight, then the following day, the absorbance and fluorescence spectra were collected using a Shimadzu UV-1601 spectrophotometer and the Spectrofluorimeter.

A short description of data set [3]: In vitro kinetics by stopped flow spectrofluorometer. In kind it is binding. The note with it: stopped-flow, dead time 2.2 ms, 20° C. How it is done:
In vitro kinetics by stopped flow spectrofluorometer. The kinetics were determined by a Hi-Tech SF-61 stopped-flow spectrofluorometer equipped with the mercury-Xe lamp (10 mm path length, dead time of 2.2 ms) at 20° C. For R-CatchER and its variant or R-CEPIA1er, excitation was at 569 nm and a long-pass 590 nm filter was used. For G-CEPIA1er, a 530 nm long-pass filter was set with excitation at 498 nm, while for MCD1, excitation at 587 nm and a long-pass 600 nm filter were applied. For association kinetics, R-CatchER, R-CatchER variant, MCD1, R-CEPIA1er, and G-CEPIA1er were mixed with the same buffer containing an increasing concentration of Ca^2+. For disassociation kinetics, R-CatchER, R-CatchER variant, MCD1, R-CEPIA1er, and G-CEPIA1er in buffers with concentration of Ca^2+ at Kd, were mixed with 5 mM EGTA or buffer. The raw data were fitted using either single exponential for R-CatchER, R-CatchER variant, and MCD1, or double exponential equations for R-CEPIA1er and G-CEPIA1er.

In another data set the test system is HeLa cells. Briefly: Epifluorescence imaging of mitochondria Ca^2+ dynamics. In kind it is cell-based. The note with it: 100 μM histamine. The protocol:
as §1, with “transfection.” for “transfection. C2C12, HEK293 and”, “DMEM” for “Dulbecco's modified Eagle's medium (DMEM)”, “FBS” for “fetal bovine serum (FBS)”, “Individual plasmids” for “R-CatchER, G-CatchER2, G-CEPIA1er, R-CEPIA1er or R-CatchER with GFP-CaSR (wt and mutations)”
Epifluorescence imaging of mitochondria Ca^2+ dynamics. The coverslips with HeLa Cells transfected with mitochondria indicators were mounted on a bath chamber and placed on the stage of a Leica DM6100B inverted microscope with a Hamamatsu cooled EM-CCD camera and illuminated with a Till Polychrome V Xenon lamp. Cells were illuminated at 569 nm, in real-time. Fluorescence images of samples were recorded as the concentration of ER Ca^2+ was perturbed by perfusion of 100 μM histamine.

Where a chain is given by its changes, count along the chain named. In names and notes the source's numbering stands. Entries after “also recorded” stand apart in the source; their conditions may differ.

One may read the Kd as the equilibrium constant for the complex coming apart.

For the molecule `O=C(O)[C@@H]1Cc2c([nH]c3ccccc23)CN1` [TNCA, L-1,2,3,4-tetrahydronorharman-3-carboxylic acid], the “Hill coefficient (cooperativity)” value at CaSR E297K is 3.08±0.40. Also, the “effect on frequency of ER Ca^2+ oscillations” value on CaSR (wildtype) (in the presence of Ca^2+, HEK293 CaSR, R-CatchER) is on record as “increased the frequency”.
For the molecule `C/C=C(/C)C(=O)O[C@H]1C(C)=C2[C@H]([C@@H]1OC(=O)CCCCCCC)[C@@](C)(OC(C)=O)C[C@H](OC(=O)CCC)[C@@]1(O)[C@H]2OC(=O)[C@@]1(C)O` [Tg, Thapsigargin], on CaSR (wildtype), the “effect on cytosolic and ER Ca^2+ oscillations” value is reported as “eliminated; also recorded: elimination”.
As for `C[C@H](CCC(=O)O)C[C@H](C)C[C@H](C)C(=O)/C=C(\O)[C@H](C)C[C@H](C)C/C=C/[C@@H](C)[C@@H](O)[C@@H](C)[C@@H](O)C[C@@H]1CC[C@@](C)([C@H]2CC[C@@](C)([C@@H](C)O)O2)O1` [ionomycin], the “effect on cytosolic and ER Ca^2+ oscillations” value at CaSR (wildtype) is “eliminated; also recorded: abolished”.

B1: MCD1: mCherry A145E/S147E/N196D/K198D/R216E, best mCherry-based variant, SEQ ID NO: 32 (protein)
chain: EEDNMAIIKEFMRFKVHMEGSVNGHEFEIEGEGEGRPYEGTQTAKLKVTKGGPLPFAWDILSPQFMYGSKAYVKHPADIPDYLKLSFPEGFKWERVMNFEDGGVVTVTQDSSLQDGEFIYKVKLRGTNFPSDGPVMQKKTMGWEESEERMYPEDGALKGEIKQRLKLKDGGHYDAEVKTTYKAKKPVQLPGAYNVDIDLDITSHNEDYTIVEQYEEAEGRHSTGGMDELYK
As for B1, the Fmax/Fmin in data set [1] (mCherry based indicators, Ca^2+ induced fluorescence change) is on record as 1.13 ± 0.01. The results for the “apparent pKa” value in data set [2] (0 mM Ca^2+) and in data set [2] (10 mM Ca^2+) were 4.31±0.01 and 4.30±0.01, respectively. For the same molecule, the “Ca^2+ association rate kon” value in data set [3] is no less than 3e+07 M⁻¹ s⁻¹.

B2: mApple A145E/K198D/R216E: mApple variant, SEQ ID NO: 25; starting point of mitochondria indicator (protein)
chain: EENNMAIIKEFMRFKVHMEGSVNGHEFEIEGEGEGRPYEAFQTAKLKVTKGGPLPFAWDILSPQFMYGSKVYIKHPADIPDYFKLSFPEGFRWERVMNFEDGGIIHVNQDSSLQDGVFIYKVKLRGTNFPSDGPVMQKKTMGWEESEERMYPEDGALKSEIKKRLKLKDGGHYAAEVKTTYKAKKPVQLPGAYIVDIDLDIVSHNEDYTIVEQYEEAEGRHSTGGMDELYK
On to B2, for which the Fmax/Fmin in data set [1] (EGFP and mApple variants) was 3.80. Moreover, the Aholo/Aapo in data set [1] (absorbance at 569) was 1.60 (569). Besides, the Kd in data set [1] (in vitro, purified protein, read-out: Kd for Ca^2+ binding) was found to be 290 ± 20 µM. Besides, the “fluorescence intensity change of mitochondria targeted indicator” value in the data set with HeLa cells was “no fluorescence change was observed”.
